The record followed here is US20220009996A1 (NORTHWESTERN UNIVERSITY, published 2022).

The target of experiment [1] is T1, Recombinant Human VCAM-1/CD106 Fc chimera protein (R&D Systems) (human, UniProt P19320 25-698).
T1 construct: Bought from R&D Systems; also called VCAM-1 protein; not shown: Fc part (and any linker or His tag) of the bought chimera is not described
T1 sequence (looked up): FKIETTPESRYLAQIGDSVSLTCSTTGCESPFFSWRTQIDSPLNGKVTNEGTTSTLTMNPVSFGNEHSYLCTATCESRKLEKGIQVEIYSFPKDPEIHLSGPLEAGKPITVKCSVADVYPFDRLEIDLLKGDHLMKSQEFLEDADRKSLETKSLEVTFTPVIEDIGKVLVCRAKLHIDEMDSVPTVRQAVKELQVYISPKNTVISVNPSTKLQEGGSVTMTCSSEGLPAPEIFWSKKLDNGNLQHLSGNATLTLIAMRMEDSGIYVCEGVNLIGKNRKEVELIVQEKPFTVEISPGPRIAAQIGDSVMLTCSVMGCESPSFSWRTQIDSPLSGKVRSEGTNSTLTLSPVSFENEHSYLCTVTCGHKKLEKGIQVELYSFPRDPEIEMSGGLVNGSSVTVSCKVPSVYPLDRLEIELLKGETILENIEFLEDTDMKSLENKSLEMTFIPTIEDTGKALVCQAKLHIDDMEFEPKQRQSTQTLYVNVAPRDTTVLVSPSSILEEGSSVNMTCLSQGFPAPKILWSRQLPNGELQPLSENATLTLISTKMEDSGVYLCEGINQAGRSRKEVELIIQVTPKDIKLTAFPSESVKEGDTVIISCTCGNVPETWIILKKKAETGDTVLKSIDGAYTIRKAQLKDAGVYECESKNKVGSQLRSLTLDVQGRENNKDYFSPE
Nature of the experiment: bio-layer interferometry (BLItz): VCAM-1 Fc chimera immobilised on an Anti-Penta-HIS biosensor, PA nanofibers in DPBS as analyte, 300 s association and 300 s dissociation. A general note: Biolayer interferometry detects binding as a change in optical thickness at a sensor tip.

Experiment [2] has as its target T1, Recombinant Human VCAM-1/CD106 Fc …. In words: BLI (BLItz), VCAM-1 Fc chimera immobilized on Anti-Penta-HIS biosensor, serial dilutions of PA nanofibers.

B1: backbone PA (C16V3A3E3) nanofibers (peptide)
peptide: VVVAAAEEE
HELM: PEPTIDE1{[CCCCCCCCCCCCCCCC(=O)[*:2]].V.V.V.A.A.A.E.E.E.[am]}$$$$V2.0
SMILES: CCCCCCCCCCCCCCCC(=O)N[C@H](C(=O)N[C@H](C(=O)N[C@H](C(=O)N[C@@H](C)C(=O)N[C@@H](C)C(=O)N[C@@H](C)C(=O)N[C@@H](CCC(=O)O)C(=O)N[C@@H](CCC(=O)O)C(=O)N[C@@H](CCC(=O)O)C(N)=O)C(C)C)C(C)C)C(C)C
notes: Peptide amphiphile without targeting moiety, self-assembled into nanofibers; also called filler PA; non-bioactive backbone PA
Take B1: the binding result in experiment [1] is listed as “no binding (tested: 100 µM)”.

B2: VCAMb-scr PA (C16V3A3E3GSGQHPHVK) nanofibers (peptide)
peptide: VVVAAAEEEGSGQHPHVK
HELM: PEPTIDE1{[CCCCCCCCCCCCCCCC(=O)[*:2]].V.V.V.A.A.A.E.E.E.G.S.G.Q.H.P.H.V.K.[am]}$$$$V2.0
SMILES: CCCCCCCCCCCCCCCC(=O)N[C@H](C(=O)N[C@H](C(=O)N[C@H](C(=O)N[C@@H](C)C(=O)N[C@@H](C)C(=O)N[C@@H](C)C(=O)N[C@@H](CCC(=O)O)C(=O)N[C@@H](CCC(=O)O)C(=O)N[C@@H](CCC(=O)O)C(=O)NCC(=O)N[C@@H](CO)C(=O)NCC(=O)N[C@@H](CCC(N)=O)C(=O)N[C@@H](Cc1c[nH]cn1)C(=O)N1CCC[C@H]1C(=O)N[C@@H](Cc1c[nH]cn1)C(=O)N[C@H](C(=O)N[C@@H](CCCCN)C(N)=O)C(C)C)C(C)C)C(C)C)C(C)C
notes: formed relatively short, closely packed fibers; also called scrambled control PA
Turning to B2, the binding result in experiment [1] was “no binding (tested: 100 µM)”.

B3: VCAM-1 binding PA (C16V3A3E3GSGVHPKQH) nanofibers (peptide)
peptide: VVVAAAEEEGSGVHPKQH
HELM: PEPTIDE1{[CCCCCCCCCCCCCCCC(=O)[*:2]].V.V.V.A.A.A.E.E.E.G.S.G.V.H.P.K.Q.H.[am]}$$$$V2.0
SMILES: CCCCCCCCCCCCCCCC(=O)N[C@H](C(=O)N[C@H](C(=O)N[C@H](C(=O)N[C@@H](C)C(=O)N[C@@H](C)C(=O)N[C@@H](C)C(=O)N[C@@H](CCC(=O)O)C(=O)N[C@@H](CCC(=O)O)C(=O)N[C@@H](CCC(=O)O)C(=O)NCC(=O)N[C@@H](CO)C(=O)NCC(=O)N[C@H](C(=O)N[C@@H](Cc1c[nH]cn1)C(=O)N1CCC[C@H]1C(=O)N[C@@H](CCCCN)C(=O)N[C@@H](CCC(N)=O)C(=O)N[C@@H](Cc1c[nH]cn1)C(N)=O)C(C)C)C(C)C)C(C)C)C(C)C
notes: Peptide amphiphile, self-assembled into supramolecular nanofibers after annealing; tested as nanofibers, so the number of copies in one assembly is not defined; In the microfluidic assay it stood as a coating on lymphocytes; also called VCAMb PA; VCAM-1 targeting PA
For B3, the dissociation constant Kd in experiment [2] amounted to 280 nM.

A word on the Kd: it is the equilibrium constant for the complex coming apart.
